Data as given in patent publication US7732178B2, “Laccase enzymes and their uses” (AB Enzymes Oy, priority 2004, dated 2010).
“Also recorded” adds a separate entry of the source. Each block holds one molecule with its values, some of them ahead of it.

Key:
[1] = Specific activity towards ABTS; type: biochemical; conditions: 25 mM succinate buffer pH 4.5, 25° C.
Procedure: The activity assay was carried out in accordance with the method developed by Niku-Paavola et al. (1988). The sample was diluted with 0.025 M succinate buffer, pH 4.5. […] The activity is expressed as nano katals.
(§1) Specific activities of the purified T. arenaria and C. thermophilum laccases were determined towards different laccase substrates.

[2] = Specific activity towards syringaldazine; type: biochemical; conditions: 25 mM MES buffer, pH 5.5
Procedure: as §1

[3] = Specific activity towards guaiacol; type: biochemical; conditions: 25 mM MES buffer, pH 5.5
Procedure: as §1

[4] = Isoelectric focusing (pI); type: physicochemical; conditions: pH range 3-9
Procedure, shortened: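 Purified Thielavia arenaria and Chaetomium thermophilum laccases resolved by isoelectric focusing over pH 3-9. pI read from focused band position.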

[5] = Redox potential of T1 copper, photometric copper titration; type: physicochemical; conditions: 0.1 M KH2PO4 (pH 6.0)
Procedure: The purified recombinant Thielavia and Chaetomium laccases were characterized in terms of pH optimum, thermal stability, and pI as described in Example 2. The molecular weight was determined by MALDI-TOF mass spectrometry on a Ultraflex™ time-of-flight instrument (BrukerDaltonics, Germany) as previously described (Palonen et al., 2003). The redox-potentials of the T1 coppers of for CtLcc, and TaLcc2 laccases were determined by photometric copper titration in 0.1 M KH2PO4 (pH 6.0) as described by Xu et al. (1996) using the redox titrant couple K3Fe(CN)6/K4Fe(CN)6. The redox potential of TaLcc1 was determined with a combined Pt—AgCl/KCl microelectrode at pH 5.0 according to Sigoillot et al (2004). The characterization results are collected to Table 14.

[6] = Denim bleaching at different pH values; set-up: key to After laccase treatment L* / After laccase treatment b* / Increase of L*: CIE L*a*b* colour coordinates (illuminant D65), Minolta reflectance; conditions: for After laccase treatment L* / After laccase treatment b* / Increase of L*: face side of denim, 30 min, 50° C.; for decolorization of indigo dye of denim compared to DeniLite II Base: pH values 6 and 7, with mediator
Procedure: Lee Cooper jeans (MASI Company Oy, Finland) that were desized and treated with neutral ECOSTONE® cellulase were used as test material. Laccase treatments were performed in LP-2 Launder Ometer as follows. About 10 g of denim swatches (15×14 cm) were loaded into 1.2 liter containers containing 200 ml Mc Ilvaine's citrate phosphate buffer pH 5, 6 or 7 and the containers were temperated. Enzyme with or without the mediator (methyl syringate, DeniLite II Assist, Novozymes) was added as laccase activity units. Enzyme was dosed 200 nkat/g and the mediator 10 mg/g on the weight of fabric. […] The Launder Ometer was run at 50° C. for 30 min and after that the temperature in Launder was raised to 80° C. for 10 min. The swatches were carefully rinsed with warm water, dried half-dry in a tumbler and after that air dried.
The bleaching effect was evaluated by measuring the colour as reflectance values with the Minolta Chromameter CM 1000 (Minolta Co.) using L*a*b* color space coordinates (illuminant D65). The colour from both sides of the swatches was measured before and after the laccase treatment. Each measurement was the average of several measurements.

[7] = Decolorization of dyes; set-up: key to Decolorization of Cibacron Brilliant Red 3B-P, Time 30 min / Decolorization of Cibacron Brilliant Red 3B-P, Time 60 min: −: no visually detectable change; +: visually detectable fading of the colour; ++: considerable fading of the colour; +++: complete/almost complete decolorization; conditions: for Decolorization of Cibacron Brilliant Red 3B-P, Time 30 min / Decolorization of Cibacron Brilliant Red 3B-P, Time 60 min: dye 5 mg/50 ml, enzyme 100 nkat/50 ml, 50° C., pH 6; for decolorization of Cibacron Brilliant Red 3B-P: in the presence of the mediator
Procedure: (§2) The recombinant laccases CtLcc1, TaLcc2 and TaLcc4, derived from Trichoderma strains (Example 7) were tested for their ability to decolorize different dyes in the presence of the methyl syringate mediator (Example 7) or without it. The experiments were carried out in 100 ml shake flasks containing 50 ml of dye dissolved in citrate phosphate buffer pH 6. Dye concentration 5 mg/50 ml was used. Enzyme was dosed 100 nkat per 50 ml and the mediator 5 mg per 50 ml. Control samples contained only dye solution. The shake flasks were incubated at 50° C. for 30, 60 and 120 minutes. Samples of 3.5 ml were taken in test tubes for visual evaluation.

[8] = Decolorization of dyes; set-up: key to Decolorization of Indigocarmine, Time 30 min / Decolorization of Indigocarmine, Time 60 min: −: no visually detectable change; +: visually detectable fading of the colour; ++: considerable fading of the colour; +++: complete/almost complete decolorization; conditions: for Decolorization of Indigocarmine, Time 30 min / Decolorization of Indigocarmine, Time 60 min: dye 5 mg/50 ml, enzyme 100 nkat/50 ml, 50° C., pH 6; for decolorization of Indigocarmine: in the presence of the mediator
Procedure: as §2

[9] = pH 5, enzyme 200 nkat/g without the mediator, or mediator 10 mg/g alone
[10] = pH 5, enzyme 200 nkat/g, mediator 10 mg/g
[11] = pH 6, enzyme 200 nkat/g without the mediator, or mediator 10 mg/g alone
[12] = pH 6, enzyme 200 nkat/g, mediator 10 mg/g
[13] = pH 7, enzyme 200 nkat/g without the mediator, or mediator 10 mg/g alone
[14] = pH 7, enzyme 200 nkat/g, mediator 10 mg/g

After laccase treatment L* [6, 9]: 30.11 | After laccase treatment b* [6, 9]: −18.63 | After laccase treatment L* [6, 10]: 33.68 | After laccase treatment b* [6, 10]: −17.91 | After laccase treatment L* [6, 11]: 29.17 | After laccase treatment b* [6, 11]: −18.51 | After laccase treatment L* [6, 12]: 39.01 | After laccase treatment b* [6, 12]: −17.46 | After laccase treatment L* [6, 13]: 28.24 | After laccase treatment b* [6, 13]: −18.30 | After laccase treatment L* [6, 14]: 35.85 | After laccase treatment b* [6, 14]: −18.27
B1: TaLcc2: Thielavia arenaria ALKO 4197 laccase, SEQ ID NO: 41, produced in Trichoderma reesei (protein)
chain: MLTETLKSRNMLQSILALLATALGSSAFAIPELPEVSLQPRQACENTATSRQCWGDLSIDTNYYEVLPSTGRPPQEYWLSVVEGPCAPDGYNRTCMTFNGTVPGPTLFADWGDELVIHVTNNMVNNGTAIHWHGIRMLNNTLNDGVPGVTQCAIAPGESMTYRFNVTQYGSTWYHSHFSLQYAEGLFGGMILRGPSTANWDEDLGVLFLQDWSHVEAFTRWHEAKAGFPPSLDGGLINGTNTFDCSTLSPTDPKCTGNGKKFETVFEPGKKYLIRLINVAIDGVFQFSIDGHSLTVIATDLVPIVPYTTDSVQITIGQRYDIIVEANATPGNYWMRADWVTACVTNDHPEHMTGIVRYDASSIDPPTSESNVTKTSSCLGEPNEKTIPHLSLDVTNIGGTNVEELSFDTTSGDYFQWTLNTSSLVLDWGNPTMARIFNGDAIFPTEYNVVAVNKTGTGPEWTVLVIQDQSNLPIAHPIHLHGHDFWVLAAEEGVFNGNISSFNTRNPARRDVATLPGRGYLAIAFQIDNPGTWLTHCHIAWHASQGLSLEFVESQSEIVTDEVSRGVFNDVCASWRAHDPLWEQEDSGI
modifications: Thielavia arenaria ALKO4197; (1)..(589) Deduced amino acid sequence of Thielavia arenaria ALKO4197 TaLacc2
Specific activity on ABTS [1]: 360 nkat/mg | Specific activity on syringaldazin [2]: 120 nkat/mg | Specific activity on guaiacol [3]: 40 nkat/mg | pI [4]: 3.5 | E^0 [5]: 450 mV | Increase of L* [6, 9]: −0.02 | Increase of L* [6, 10]: 5.39 | Increase of L* [6, 11]: 0.30 | Increase of L* [6, 12]: 10.57 | Increase of L* [6, 13]: 0.77 | Increase of L* [6, 14]: 7.26 | decolorization of indigo dye of denim compared to DeniLite II Base [6]: more efficient | Decolorization of Cibacron Brilliant Red 3B-P, Time 30 min ([7]; Table 24, mediator 0 mg/50 ml): − | Decolorization of Cibacron Brilliant Red 3B-P, Time 60 min ([7]; Table 24, mediator 0 mg/50 ml): − | Decolorization of Cibacron Brilliant Red 3B-P, Time 30 min ([7]; Table 24, mediator 5 mg/50 ml): + | Decolorization of Cibacron Brilliant Red 3B-P, Time 60 min ([7]; Table 24, mediator 5 mg/50 ml): + | decolorization of Cibacron Brilliant Red 3B-P [7]: partly decolorized | Decolorization of Indigocarmine, Time 30 min ([8]; Table 24, mediator 0 mg/50 ml): − | Decolorization of Indigocarmine, Time 60 min ([8]; Table 24, mediator 0 mg/50 ml): − | Decolorization of Indigocarmine, Time 30 min ([8]; Table 24, mediator 5 mg/50 ml): +++ | Decolorization of Indigocarmine, Time 60 min ([8]; Table 24, mediator 5 mg/50 ml): +++ | decolorization of Indigocarmine [8]: very effectively; also recorded: to great extend or completely

After laccase treatment L* [6, 9]: 28.88 | After laccase treatment b* [6, 9]: −18.65 | After laccase treatment L* [6, 10]: 35.07 | After laccase treatment b* [6, 10]: −18.38 | After laccase treatment L* [6, 11]: 28.83 | After laccase treatment b* [6, 11]: −18.53 | After laccase treatment L* [6, 12]: 40.08 | After laccase treatment b* [6, 12]: −17.18 | After laccase treatment L* [6, 13]: 29.32 | After laccase treatment b* [6, 13]: −18.52 | After laccase treatment L* [6, 14]: 36.69 | After laccase treatment b* [6, 14]: −17.88
B2: CtLcc1: Chaetomium thermophilum ALKO 4265 laccase, SEQ ID NO: 47, produced in Trichoderma reesei (protein)
chain: MKFLTYATALLGALTAVVGAIPTRSGTKKKYIRDGPGPCHTPSNRACWAPGFDINTDYEVNTPNTGVTRNYTLTLTEEDNWTGPDGVVKEKIMLVNGKTLGPTIEANWGDWIEVKVINNLLTNGTSIHWHGIHQKGSNLHDGANGVTECPIPPNGGQRTYRFRAQQYGTSWYHSHFSAQYGNGIVGPIVIHGPASLPYDIDLGPFPLTDYYYKSADELVRHTQNNGPPFSDNVLFNGTGVHPQTGHGQYAKVTLTPGKRHRLRIINMSTENHFQVSLVGHQFTVIAADMVPVHSYTTDSLFLAVGQRYDVTIDASQTPGNYWFNVTFGGGFACGGSFNPNPAAIFHYEGAPDALPTDPGVPPRDHNCLDTLDLVPVVPRNVQVNQFVKKPENTLPVELSLGGTPLFVWKVNGSAIDVDWGNPVLQYVMDRNTSYRQADNIVEVNGVNQWTYWLIENDPNGAFSLPHPMHLHGHDFLIVGRSPDVPPGSNQRYNFDPATDIYRLRGQNPTRRDVAMLPAGGWLLLAFLTDNPGAWLFHCHIAWHVSGGLSVDFLERPNDLRNSILQHDKDEFNRVCNEWRTYWPNSPHPKIDSGLKHRWVEESEWLVR
modifications: Chaetomium thermophilum ALKO4265; (1)..(607) Deduced amino acid sequence of Chaetomium thermophilum ALKO4265 CtLcc1
Specific activity on ABTS [1]: 705 nkat/mg | Specific activity on syringaldazin [2]: 400 nkat/mg | Specific activity on guaiacol [3]: 85 nkat/mg | pI [4]: 4.0-4.3 | E^0 [5]: 480 mV | Increase of L* [6, 9]: 0.46 | Increase of L* [6, 10]: 5.91 | Increase of L* [6, 11]: −0.13 | Increase of L* [6, 12]: 11.19 | Increase of L* [6, 13]: 0.73 | Increase of L* [6, 14]: 8.31 | decolorization of indigo dye of denim compared to DeniLite II Base [6]: more efficient | Decolorization of Cibacron Brilliant Red 3B-P, Time 30 min ([7]; mediator 0 mg/50 ml): − | Decolorization of Cibacron Brilliant Red 3B-P, Time 60 min ([7]; mediator 0 mg/50 ml): − | Decolorization of Cibacron Brilliant Red 3B-P, Time 30 min ([7]; mediator 5 mg/50 ml): + | Decolorization of Cibacron Brilliant Red 3B-P, Time 60 min ([7]; mediator 5 mg/50 ml): + | decolorization of Cibacron Brilliant Red 3B-P [7]: partly decolorized | Decolorization of Indigocarmine, Time 30 min ([8]; mediator 0 mg/50 ml): − | Decolorization of Indigocarmine, Time 60 min ([8]; mediator 0 mg/50 ml): − | Decolorization of Indigocarmine, Time 30 min ([8]; mediator 5 mg/50 ml): +++ | Decolorization of Indigocarmine, Time 60 min ([8]; mediator 5 mg/50 ml): +++ | decolorization of Indigocarmine [8]: very effectively; also recorded: to great extend or completely
